Data taken from US20090041777A1 (UNIVERSITY OF MASSACHUSETTS, published 2009).

What was measured:
[1] = biological target: T1, ERA-CO glycoprotein (codon-optimized full-length rabies G glycoprotein, ERA strain, amino acids 1-524, … (rabies virus, ERA strain, UniProt P03524 20-524)); test: flow cytometry on transfected 293T cells, PE anti-human IgG
T1 sequence: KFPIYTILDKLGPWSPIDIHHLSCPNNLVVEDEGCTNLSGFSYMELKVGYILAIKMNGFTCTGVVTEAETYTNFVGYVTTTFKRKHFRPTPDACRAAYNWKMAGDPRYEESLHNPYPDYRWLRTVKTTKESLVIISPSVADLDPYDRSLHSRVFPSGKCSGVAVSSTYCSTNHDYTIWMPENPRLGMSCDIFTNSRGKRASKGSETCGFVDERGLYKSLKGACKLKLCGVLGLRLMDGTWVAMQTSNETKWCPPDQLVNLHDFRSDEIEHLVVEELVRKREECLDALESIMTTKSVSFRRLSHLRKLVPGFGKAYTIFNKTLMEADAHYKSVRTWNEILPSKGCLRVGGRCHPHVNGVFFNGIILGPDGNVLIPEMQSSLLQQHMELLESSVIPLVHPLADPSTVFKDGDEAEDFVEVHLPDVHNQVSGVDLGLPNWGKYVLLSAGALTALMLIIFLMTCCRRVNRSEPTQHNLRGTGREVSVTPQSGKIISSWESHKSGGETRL

[2] = biological target: T2, ERA-CO20-439 (secreted soluble ectodomain of codon-optimized ERA rabies G glycoprotein, Myc/His tagged) (rabies virus, ERA strain, UniProt P03524 20-439); test: Biacore (SPR) on the ectodomain region of codon-optimized rabies G glycoprotein
T2 sequence: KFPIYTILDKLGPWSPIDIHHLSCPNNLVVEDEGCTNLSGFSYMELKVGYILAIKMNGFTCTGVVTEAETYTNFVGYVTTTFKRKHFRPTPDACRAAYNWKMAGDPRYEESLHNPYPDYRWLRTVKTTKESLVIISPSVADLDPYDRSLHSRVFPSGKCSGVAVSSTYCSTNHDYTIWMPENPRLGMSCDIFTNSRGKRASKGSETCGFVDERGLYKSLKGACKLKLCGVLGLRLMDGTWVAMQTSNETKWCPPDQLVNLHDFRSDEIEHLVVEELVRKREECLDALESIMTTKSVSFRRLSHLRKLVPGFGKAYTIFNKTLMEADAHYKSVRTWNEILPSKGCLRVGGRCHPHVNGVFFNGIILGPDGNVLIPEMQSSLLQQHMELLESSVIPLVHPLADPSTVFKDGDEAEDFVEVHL

B1: HuMab 17C7 (antibody, V domains shown)
VH: QVQLVESGGGVVQPGRSLRLSCAASGFTFSTYAMHWVRQAPGKGLEWVAVVSYDGRTKDYADSVKGRFTISRDNSKNTLYLQMNSLRTEDTAVYFCARERFSGAYFDYWGQGTLVTVSS
VL: EIVLTQSPATLSLSPGERATLSCRASQSVSSYLAWYQQKPGQAPRLLIYDASNRATGIPARFSGSGSGTDFTLTISSLEPEDFAVYSCQQRNNWPPTFGGGTKVEIK
With B1 the “EC50 (read off the curve)” value [1] was about 30 nM and the Kd [2] was at most 13.6 nM.
